Data published in publication PMC5712427.

Biological target: Full length human APOBEC3G (human) (UniProt Q9HC16)
Assay: time-lapse high-speed AFM

## Full length human APOBEC3G (from UniProt Q9HC16 1-384) (enzyme)
  stoichiometry N: 2
